Where a SMILES comes first, the peptide text is derived from it. [ ]: non-standard residue; d: D form. Aib = CC(C)(N)C(=O)O
What was measured:
[1] = molecular target: T1, GCGR (Homo sapiens, UniProt P47871); test: NanoBiT mini-Gs recruitment to GCGR-SmBiT in HEK293T cells; assay type: cell-based; set-up: expressed in transfected cells; host or cells: HEK293T
[2] = molecular target: T1, GCGR; test: NanoBiT β-arrestin-2 recruitment to GCGR-SmBiT in HEK293T cells; assay type: cell-based; set-up: expressed in transfected cells; host or cells: HEK293T
[3] = molecular target: GCGR-SmBiT (glucagon receptor) (UniProt P47871)
[4] = molecular target: GLP-1R-SmBiT (glucagon-like peptide-1 receptor) (UniProt P43220)
[5] = test system: Huh7-GCGR cells; test: Fluorescent TMR-ligand internalisation in Huh7-GCGR cells (high content imaging); assay type: cell-based, human; settings: 100 nM, 30 min, n = 4
Method: Huh7-GCGR cells were seeded in black clear-bottom plates coated with 0.1% poly-D-lysine and assayed 24 h later. Then 100 nM of fluorescent TMR-conjugated agonist or vehicle was applied for 30 min. The cells were then washed with cold HBSS and incubated for 5 min in cold acetic acid +150 mM of NaCl buffer at a pH of 2.9 to strip surface ligands. After a final wash, the cells were resuspended in HBSS and the fluorescent ligand uptake was measured and quantified by high content imaging as described in Section 2.9.

[6] = test system: mouse pancreatic islets; test: Fluorescent TMR-ligand uptake in mouse pancreatic islets; assay type: cell-based; settings: 100 nM, 30 min, confocal imaging, n = 2
Method: Mouse pancreatic islets were isolated and left to recover overnight before being immobilised with Matrigel onto glass-bottom Mattek dishes and stimulated with 100 nM of the indicated TMR-modified agonist for 30 min. Z stacks were recorded for the whole islet volume on a Zeiss LSM780 inverted confocal microscope with a 20× air objective and 1 μm of separation between optical slices.

[7] = molecular target: GCGR-SmBiT (glucagon receptor) (UniProt P47871); test: split reporter (BiFC, NanoBiT); HEK293T cells co-transfected with receptor-SmBiT and LgBiT-mini-G or LgBiT-β-arrestin-2; in HBSS with furimazine, 37 °C; 5 min baseline, then peptide agonist added and luminescence recorded for 30 min; K@[max] from one-phase (mini-Gs) or bi-exponential (β-arrestin-2) fits at a single maximal agonist concentration
[8] = molecular target: GLP-1R-SmBiT (glucagon-like peptide-1 receptor) (UniProt P43220); test: as above

T1 sequence (P47871 26-477): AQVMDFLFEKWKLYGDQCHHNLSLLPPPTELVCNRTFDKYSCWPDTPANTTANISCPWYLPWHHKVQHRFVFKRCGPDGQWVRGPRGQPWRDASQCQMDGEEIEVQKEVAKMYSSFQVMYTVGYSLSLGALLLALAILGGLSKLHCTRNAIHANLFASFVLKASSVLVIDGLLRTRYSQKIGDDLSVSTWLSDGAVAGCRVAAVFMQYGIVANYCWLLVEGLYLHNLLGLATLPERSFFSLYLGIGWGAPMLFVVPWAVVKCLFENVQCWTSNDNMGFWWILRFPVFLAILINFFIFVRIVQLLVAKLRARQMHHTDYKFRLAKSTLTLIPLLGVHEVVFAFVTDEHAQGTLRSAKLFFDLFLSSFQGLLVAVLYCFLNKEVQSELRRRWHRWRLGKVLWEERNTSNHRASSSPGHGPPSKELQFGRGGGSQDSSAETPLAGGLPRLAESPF
Chain of GCGR-SmBiT (glucagon receptor) (P47871 26-477): as above
Chain of GCG-H3 (peptide) (peptide): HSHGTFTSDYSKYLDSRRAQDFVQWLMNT
Chain of GLP-1R-SmBiT (glucagon-like peptide-1 receptor) (P43220 24-463): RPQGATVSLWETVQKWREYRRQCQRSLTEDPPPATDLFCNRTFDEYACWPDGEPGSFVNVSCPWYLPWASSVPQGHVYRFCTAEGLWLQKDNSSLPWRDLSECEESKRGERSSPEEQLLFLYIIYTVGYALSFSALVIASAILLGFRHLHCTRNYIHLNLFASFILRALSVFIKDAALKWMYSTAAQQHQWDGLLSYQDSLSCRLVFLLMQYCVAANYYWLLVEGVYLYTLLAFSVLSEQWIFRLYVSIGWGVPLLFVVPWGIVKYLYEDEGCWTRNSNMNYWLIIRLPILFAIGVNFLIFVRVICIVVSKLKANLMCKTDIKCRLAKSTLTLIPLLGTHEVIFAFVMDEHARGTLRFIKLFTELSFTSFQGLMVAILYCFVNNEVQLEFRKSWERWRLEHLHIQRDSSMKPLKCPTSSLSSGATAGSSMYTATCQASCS

CSCC[C@H](NC(=O)[C@H](CC(C)C)NC(=O)[C@H](Cc1c[nH]c2ccccc12)NC(=O)[C@H](CCC(N)=O)NC(=O)[C@@H](NC(=O)[C@H](Cc1ccccc1)NC(=O)[C@H](CC(=O)O)NC(=O)[C@H](CCC(N)=O)NC(=O)[C@H](C)NC(=O)[C@H](CCCNC(=N)N)NC(=O)[C@H](CCCNC(=N)N)NC(=O)[C@H](CO)NC(=O)[C@H](CC(=O)O)NC(=O)[C@H](CC(C)C)NC(=O)[C@H](Cc1ccc(O)cc1)NC(=O)[C@H](CCCCN)NC(=O)[C@H](CO)NC(=O)[C@H](Cc1ccc(O)cc1)NC(=O)[C@H](CC(=O)O)NC(=O)[C@H](CO)NC(=O)[C@@H](NC(=O)[C@H](Cc1ccccc1)NC(=O)[C@@H](NC(=O)CNC(=O)[C@H](Cc1c[nH]cn1)NC(=O)C(C)(C)NC(=O)[C@@H](N)Cc1c[nH]cn1)[C@@H](C)O)[C@@H](C)O)C(C)C)C(=O)N[C@@H](CC(N)=O)C(=O)N[C@H](C(=O)O)[C@@H](C)O [GCG-AIB2H3] (H-H[Aib]HGTFTSDYSKYLDSRRAQDFVQWLMNT-OH)
Emax ([1]; HEK-293T, read-out: GCGR Mini-Gs Emax): 74 ± 5% | EC50 ([1]; read-out: GCGR Mini-Gs pEC50 (converted)): 100 nM | Emax ([2]; HEK-293T, read-out: GCGR β-arrestin-2 Emax): 53 ± 2% | EC50 ([2]; read-out: GCGR β-arrestin-2 pEC50 (converted)): 251 nM

GCG-AIB2H3 (peptide)
Emax of mini-Gs recruitment to GCGR-SmBiT (NanoBiT, HEK293T, AUC over 30 min) [3]: 74 % max | Emax of β-arrestin-2 recruitment to GCGR-SmBiT (NanoBiT, HEK293T, AUC over 30 min) [3]: 53 % max | pEC50 of mini-Gs recruitment to GCGR-SmBiT (NanoBiT, HEK293T, AUC over 30 min) [3]: 7 pEC50 (M) | pEC50 of β-arrestin-2 recruitment to GCGR-SmBiT (NanoBiT, HEK293T, AUC over 30 min) [3]: 6.6 pEC50 (M)

GCG-H3 (peptide)
Emax of mini-Gs recruitment to GCGR-SmBiT (NanoBiT, HEK293T, AUC over 30 min) [3]: 66 % max | Emax of β-arrestin-2 recruitment to GCGR-SmBiT (NanoBiT, HEK293T, AUC over 30 min) [3]: 54 % max | pEC50 of mini-Gs recruitment to GCGR-SmBiT (NanoBiT, HEK293T, AUC over 30 min) [3]: 6.8 pEC50 (M) | pEC50 of β-arrestin-2 recruitment to GCGR-SmBiT (NanoBiT, HEK293T, AUC over 30 min) [3]: 6.3 pEC50 (M)

GLP-1-AIB2 (peptide)
Emax of mini-Gs recruitment to GLP-1R-SmBiT (NanoBiT, HEK293T, AUC over 30 min) [4]: 96 % max | Emax of β-arrestin-2 recruitment to GLP-1R-SmBiT (NanoBiT, HEK293T, AUC over 30 min) [4]: 68 % max | pEC50 of mini-Gs recruitment to GLP-1R-SmBiT (NanoBiT, HEK293T, AUC over 30 min) [4]: 7.9 pEC50 (M) | pEC50 of β-arrestin-2 recruitment to GLP-1R-SmBiT (NanoBiT, HEK293T, AUC over 30 min) [4]: 7.7 pEC50 (M)

Glucagon-AIB2 (GCG-AIB2) (peptide)
Emax of mini-Gs recruitment to GCGR-SmBiT (NanoBiT, HEK293T, AUC over 30 min) [3]: 54 % max | Emax of β-arrestin-2 recruitment to GCGR-SmBiT (NanoBiT, HEK293T, AUC over 30 min) [3]: 25 % max | pEC50 of mini-Gs recruitment to GCGR-SmBiT (NanoBiT, HEK293T, AUC over 30 min) [3]: 6.7 pEC50 (M) | pEC50 of β-arrestin-2 recruitment to GCGR-SmBiT (NanoBiT, HEK293T, AUC over 30 min) [3]: 6.2 pEC50 (M)

HXHGTFTSDYSKYLDAKRAQEFIEWLLAGHHHHHPS(K-TMR)W [SRB103H-TMR, SRB103H analogue conjugated to tetramethylrhodamine (TMR) close to the C-terminus]
TMR-ligand uptake in Huh7-GCGR cells [5]: greater uptake

HXQGTFTSDYSKYLDAKRAQEFIEWLLAGHHHHHPS(K-TMR)W [SRB103Q-TMR, SRB103Q analogue conjugated to tetramethylrhodamine (TMR) close to the C-terminus]
TMR agonist uptake in mouse islets [6]: somewhat reduced compared to SRB103H-TMR

LgBiT-mini-Gs (domain or fragment)
K@[max] with GCG (association rate constant at maximal agonist stimulation) [7]: 0.17 min⁻¹ | K@[max] with GCG-AIB2 (association rate constant at maximal agonist stimulation) [7]: 0.11 min⁻¹ | K@[max] with GCG-AIB2H3 (association rate constant at maximal agonist stimulation) [7]: 0.13 min⁻¹ | K@[max] with GCG-H3 (association rate constant at maximal agonist stimulation) [7]: 0.13 min⁻¹ | K@[max] with SRB103H (association rate constant at maximal agonist stimulation) [7]: 0.14 min⁻¹ | K@[max] with SRB103Q (association rate constant at maximal agonist stimulation) [7]: 0.13 min⁻¹ | K@[max] with GLP-1-AIB2 (association rate constant at maximal agonist stimulation) [8]: 0.21 min⁻¹ | K@[max] with SRB103H (association rate constant at maximal agonist stimulation) [8]: 0.93 min⁻¹ | K@[max] with SRB103Q (association rate constant at maximal agonist stimulation) [8]: 0.7 min⁻¹

— publication PMC8163982, “Partial agonism improves the anti-hyperglycaemic efficacy of an oxyntomodulin-derived GLP-1R/GCGR co-agonist” (Molecular Metabolism, 2021)
